What all share (assay): SPR; Biacore 8K, affinity determination of second-generation constructs; 30-100 RU of ABD035-containing constructs captured on immobilised HSA (CM5); 1-200 nM human sortilin injected 180 s at 30 µl/min, 25°C, PBST; 60 min dissociation; 1:1 Langmuir fit; apparent constants; n=3 technical replicates
(In general: SPR reads the build-up and loss of mass on a sensor chip optically.)

The target of assay [1] is A3-ABD (His6-A3-G4S-ABD035).
In assay [2] the target is ABD-A3-(G4S)3-NTC3 (His6-ABD035-G4S-A3-(G4S)3-NTC3).
The target in assay [3] is ABD-A3-(G4S)3-PGRNC3 (His6-ABD035-G4S-A3-(G4S)3-PGRNC3) (human).
Assay [4] concerns the target ABD-A3-(G4S)3-PGRNC6* (His6-ABD035-G4S-A3-(G4S)3-PGRNC6*) (human) (UniProt P28799).

Chain of human sortilin (R&D Systems, 3154-ST) (Q99523 78-755): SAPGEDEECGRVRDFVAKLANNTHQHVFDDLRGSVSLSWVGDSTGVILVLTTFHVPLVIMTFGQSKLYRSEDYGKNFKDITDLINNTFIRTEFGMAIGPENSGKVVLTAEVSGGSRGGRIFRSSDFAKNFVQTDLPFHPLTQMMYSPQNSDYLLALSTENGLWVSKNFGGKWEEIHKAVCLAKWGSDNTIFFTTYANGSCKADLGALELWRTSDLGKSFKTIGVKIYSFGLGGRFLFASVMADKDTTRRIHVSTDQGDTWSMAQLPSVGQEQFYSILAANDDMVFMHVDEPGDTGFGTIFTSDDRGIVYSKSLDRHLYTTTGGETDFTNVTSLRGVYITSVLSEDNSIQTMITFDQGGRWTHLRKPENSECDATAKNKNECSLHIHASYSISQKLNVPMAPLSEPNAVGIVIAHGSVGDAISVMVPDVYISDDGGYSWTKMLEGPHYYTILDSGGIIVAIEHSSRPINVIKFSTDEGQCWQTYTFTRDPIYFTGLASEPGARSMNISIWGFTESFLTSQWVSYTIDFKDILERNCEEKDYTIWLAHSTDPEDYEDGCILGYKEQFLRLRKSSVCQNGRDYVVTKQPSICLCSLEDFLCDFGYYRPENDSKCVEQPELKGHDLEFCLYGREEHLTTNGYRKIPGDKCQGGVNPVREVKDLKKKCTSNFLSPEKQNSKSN

Take “human sortilin (R&D Systems, 3154-ST) (from UniProt Q99523 78-755) (receptor)”: the Kd in assay [1] amounted to 70.4 nM; in assay [2] it was 0.303 nM; in assay [3], 0.31 nM; in assay [4], 0.319 nM.

These data come from publication PMC11342335.
